Publication doi:10.1101/2021.03.17.435802

Legend:
[1] = molecular target: catalytically active ACE2-Fc (human) (UniProt Q9BYF1); assay: SPR
ACE2(HH:NN)-Fc (human) = ACE2(HH:NN)-Fc (human) (UniProt Q9BYF1); assay: SPR

Substance Angiotensin II (peptide) has a Kd [1] of 117 nM and a Kd (ACE2(HH:NN)-Fc (human)) of 1300 nM.
